Data as given in PMC10075959.

Columns and labels:
[1] = target: 229E-related bat coronavirus N-protein LRS peptide (comprising the predicted helix) (229E-related bat coronavirus); test: AUC
[2] = target: MERS N-protein LRS peptide (comprising the predicted helix) (MERS); test: AUC
[3] = target: SARS-CoV N-protein LRS peptide (comprising the predicted helix) (SARS-CoV); test: AUC
[4] = target: human coronavirus NL63 N-protein LRS peptide (comprising the predicted helix) (human coronavirus NL63); test: AUC; sedimentation velocity of peptides at different concentrations, 20°C, 55,000 rpm, working buffer (10.1 mM Na2PO4, 1.8 mM KH2PO4, 2.7 mM KCl, 10 mM NaCl, pH 7.40), also with 10% TFE; c(s) distributions; monomer to oligomer (trimer)
[5] = target: murine hepatitis virus (MHV) N-protein LRS peptide (comprising the predicted helix) (murine hepatitis virus); test: as above

229E-related bat coronavirus N-protein LRS peptide (comprising the predicted helix)
stoichiometry N [1]: 3

MERS N-protein LRS peptide (comprising the predicted helix)
stoichiometry N [2]: 3

SARS-CoV N-protein LRS peptide (comprising the predicted helix)
stoichiometry N [3]: 3

human coronavirus NL63 N-protein LRS peptide (comprising the predicted helix)
stoichiometry N [4]: 3

murine hepatitis virus (MHV) N-protein LRS peptide (comprising the predicted helix)
stoichiometry N [5]: 3
